The text below walks through data of article PMC10786891, “Massively parallel profiling of RNA-targeting CRISPR-Cas13d”.

Where a chain is given by its changes, count along the chain named.

Sequences and labels used below:
B1: target 1 insU 3' of 21,insG 3' of 14 (mixed)
RNA 1: CACCCGUGCAAAAAUGCAGGGGUCUAAAACUGAGCGGAUAACCUCUCUAUGG
RNA 2: GGGAAUGGAUCCACAUCUACGAAUUCGUACCUAUAGAGAGGGUUAUCCGCUCACCGAGAUCGGAAGAGCACACGU
B2: target 2 MT 5'PFS UAG 3'PFS CAG (mixed)
RNA 1: CACCCGUGCAAAAUUGCAGGGGUCUAAAACCUUCUCCAAAUUGUUUCAUCCU
RNA 2: GGGAAUGGAUCCACAUCUACGAAUUCUAGAGGAUGAAACAAUUUGGAGAAGCAGAGAUCGGAAGAGCACACGU
B3: target 2 MT 5'PFS UCU 3'PFS AAC (mixed)
RNA 1: B2 RNA 1
RNA 2: B2 RNA 2 with A28C, G29U, C52A, G54C
B4: target 2 MT 5'PFS CUU 3'PFS CUC (mixed)
RNA 1: B2 RNA 1
RNA 2: B2 RNA 2 with U27C, A28U, G29U, A53U, G54C
B5: target 2 MT 5'PFS UCU 3'PFS AAU (mixed)
RNA 1: B2 RNA 1
RNA 2: B2 RNA 2 with A28C, G29U, C52A, G54U
B6: target 2 MT 5'PFS CGG 3'PFS AAA (mixed)
RNA 1: B2 RNA 1
RNA 2: B2 RNA 2 with U27C, A28G, C52A, G54A
B7: target 2 MT 5'PFS CAC 3'PFS UUU (mixed)
RNA 1: B2 RNA 1
RNA 2: B2 RNA 2 with U27C, G29C, C52U, A53U, G54U
B8: target 2 MT 5'PFS UAG 3'PFS CAU (mixed)
RNA 1: B2 RNA 1
RNA 2: B2 RNA 2 with G54U
B9: target 2 MT 5'PFS AUU 3'PFS CAG (mixed)
RNA 1: B2 RNA 1
RNA 2: B2 RNA 2 with U27A, A28U, G29U
B10: target 2 MT 5'PFS UCU 3'PFS AAA (mixed)
RNA 1: B2 RNA 1
RNA 2: B2 RNA 2 with A28C, G29U, C52A, G54A
B11: target 2 MT 5'PFS CGC 3'PFS UGC (mixed)
RNA 1: B2 RNA 1
RNA 2: B2 RNA 2 with U27C, A28G, G29C, C52U, A53G, G54C
B12: target 2 MT 5'PFS CGG 3'PFS AAC (mixed)
RNA 1: B2 RNA 1
RNA 2: B2 RNA 2 with U27C, A28G, C52A, G54C
B13: target 2 MT 5'PFS CGG 3'PFS AAG (mixed)
RNA 1: B2 RNA 1
RNA 2: B2 RNA 2 with U27C, A28G, C52A
B14: target 2 MT 5'PFS GCG 3'PFS CUA (mixed)
RNA 1: B2 RNA 1
RNA 2: B2 RNA 2 with U27G, A28C, A53U, G54A
B15: target 2 MT 5'PFS CUU 3'PFS CUG (mixed)
RNA 1: B2 RNA 1
RNA 2: B2 RNA 2 with U27C, A28U, G29U, A53U
B16: target 2 MT 5'PFS CGG 3'PFS AAU (mixed)
RNA 1: B2 RNA 1
RNA 2: B2 RNA 2 with U27C, A28G, C52A, G54U
B17: target 2 MT 5'PFS CUU 3'PFS CUA (mixed)
RNA 1: B2 RNA 1
RNA 2: B2 RNA 2 with U27C, A28U, G29U, A53U, G54A

In this data set the target is T1, EsCas13d, nuclease-dead (Eubacterium siraeum, UniProt B0MS50, R295A;H300A;R849A;H854A).
T1 sequence: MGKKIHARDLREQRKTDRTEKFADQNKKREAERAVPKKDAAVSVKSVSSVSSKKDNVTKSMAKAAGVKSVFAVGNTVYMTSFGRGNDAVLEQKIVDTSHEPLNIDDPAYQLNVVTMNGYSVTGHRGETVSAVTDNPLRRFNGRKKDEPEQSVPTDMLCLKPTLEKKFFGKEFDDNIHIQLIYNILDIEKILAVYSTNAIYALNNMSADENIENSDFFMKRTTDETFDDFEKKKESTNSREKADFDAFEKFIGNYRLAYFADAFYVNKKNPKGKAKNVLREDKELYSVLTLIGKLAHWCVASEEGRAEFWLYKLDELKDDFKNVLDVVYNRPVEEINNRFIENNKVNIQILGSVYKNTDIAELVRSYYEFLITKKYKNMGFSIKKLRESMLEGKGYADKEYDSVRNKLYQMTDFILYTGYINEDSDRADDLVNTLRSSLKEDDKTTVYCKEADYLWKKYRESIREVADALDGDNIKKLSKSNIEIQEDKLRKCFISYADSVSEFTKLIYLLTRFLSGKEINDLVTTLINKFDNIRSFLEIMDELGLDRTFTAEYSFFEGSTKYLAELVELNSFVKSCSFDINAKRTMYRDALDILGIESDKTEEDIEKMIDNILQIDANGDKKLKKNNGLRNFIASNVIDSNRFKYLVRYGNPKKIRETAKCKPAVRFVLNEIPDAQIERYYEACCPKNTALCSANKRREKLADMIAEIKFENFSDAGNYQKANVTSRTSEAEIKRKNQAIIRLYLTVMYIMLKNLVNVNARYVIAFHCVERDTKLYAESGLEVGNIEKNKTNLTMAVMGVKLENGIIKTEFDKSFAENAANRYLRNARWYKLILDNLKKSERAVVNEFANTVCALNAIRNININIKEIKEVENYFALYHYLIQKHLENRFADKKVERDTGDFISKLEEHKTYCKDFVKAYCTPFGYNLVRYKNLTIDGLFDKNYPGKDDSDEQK
The data set can be described thus: crRNA (strand 1, pre-loaded); Mg2+; 40 mM Tris-HCl pH 7.5, 150 mM NaCl, 6 mM MgCl2, 1 mM DTT, 0.1% Tween-20, 0.2 mg/ml BSA; 25 C; 10 min per concentration, then washed. As to conditions: tags: His6-TwinStrep-SUMO cleaved; N-terminal SNAP kept (SNAP-Surface 488); label: 3' end held by stalled T7 RNA polymerase.
B1 had a Kd of 39 ± 4 nM. As for B2, the Kd was found to be 2.68 ± 0.21 nM. The molecule B3 returned a Kd of 9.5 ± 1.7 nM.

As for B4, the dissociation constant (Kd) is 5.6 ± 0.5 nM. For B5 the value was 26 ± 10 nM; for B6, 5.7 ± 0.9 nM; for B7, 5.2 ± 0.8 nM. Take B8: the Kd is 3.7 ± 0.5 nM. Molecule B9 had an equilibrium dissociation constant (Kd) of 6.9 ± 1.1 nM. In turn, B10 showed a Kd of 20 ± 8 nM. Take B11: the Kd came to 6 ± 0.9 nM. For B12, the Kd is 4.2 ± 0.4 nM. Under B13 stands 4.4 ± 0.5 nM; under B14, 14.3 ± 2.7 nM. B15: binding was characterised by a dissociation constant (Kd) of 4.2 ± 0.8 nM. For B16 the value was 4.8 ± 0.7 nM.

Turning to B17, the Kd was 10.8 ± 3.5 nM.
